Test results from patent publication US20140086829A1 (BIOREC S A, published 2014).

Columns and labels:
human GST-VEGF [1] = target: T1, human GST-VEGF (human, UniProt P15692-9 27-147); test: competition ELISA on coated GST-VEGF; soluble scFv 2H1 titrated; competitor phage scFv 1D12
T1 construct: also called GST-VEGF humano; not shown: GST fusion partner
T1 sequence (looked up): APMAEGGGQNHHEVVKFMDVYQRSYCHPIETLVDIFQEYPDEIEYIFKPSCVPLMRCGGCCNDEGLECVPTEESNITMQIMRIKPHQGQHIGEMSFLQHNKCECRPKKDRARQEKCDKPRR

human GST-VEGF [2] = target: T1, human GST-VEGF; test: competition ELISA on coated GST-VEGF; soluble scFv 2H1 titrated; competitor phage scFv L3H7
human GST-VEGF [3] = target: T1, human GST-VEGF; test: competition ELISA on coated GST-VEGF; soluble scFv 2H1 titrated; competitor phage scFv 1H2
human GST-VEGF [4] = target: T1, human GST-VEGF; test: competition ELISA on coated GST-VEGF; soluble scFv 2H1 titrated; competitor phage scFv 1B1
human GST-VEGF [5] = target: T1, human GST-VEGF; test: competition ELISA on coated GST-VEGF; soluble scFv 2H1 titrated; competitor phage scFv L2
human GST-VEGF [6] = target: T1, human GST-VEGF; test: competition ELISA on coated GST-VEGF; soluble scFv 2H1 titrated; competitor phage scFv 1B1; remark: listed apart in the source
human GST-VEGF [7] = target: T1, human GST-VEGF; test: competition ELISA on coated GST-VEGF; soluble scFv 2H1 titrated; competitor phage scFv 2A7
human GST-VEGF [8] = target: T1, human GST-VEGF; test: competition ELISA on coated GST-VEGF; soluble scFv 2H1 titrated; competitor phage scFv 2F6
human GST-VEGF [9] = target: T1, human GST-VEGF; test: competition ELISA on coated GST-VEGF; soluble scFv 2H1 titrated; competitor phage scFv 2H1 original
human GST-VEGF [10] = target: T1, human GST-VEGF; test: competition ELISA on coated GST-VEGF; soluble scFv 2H1 titrated; competitor phage scFv 4H3
human GST-VEGF [11] = target: T1, human GST-VEGF; test: competition ELISA on coated GST-VEGF; soluble scFv 2H1 titrated; competitor phage scFv 3E4
human GST-VEGF [12] = target: T1, human GST-VEGF; test: competition ELISA on coated GST-VEGF; soluble scFv 2H1 titrated; competitor phage scFv 1H3
human GST-VEGF [13] = target: T1, human GST-VEGF; test: competition ELISA on coated GST-VEGF; soluble scFv 2H1 titrated; competitor phage scFv 3F3
human GST-VEGF [14] = target: T1, human GST-VEGF; test: competition ELISA on coated GST-VEGF; soluble scFv 2H1 titrated; competitor phage scFv 2F6; remark: listed apart in the source
human GST-VEGF [15] = target: T1, human GST-VEGF; test: competition ELISA on coated GST-VEGF; soluble scFv 2H1 titrated; competitor phage scFv 1G4
P64K-VEGFKDR- (human) = P64K-VEGFKDR- (human) (UniProt P15692); test: ELISA; antigen coated 1 µg/ml; scFv 10 µg/mL; 9E10-peroxidase
human GST-VEGF [16] = target: T1, human GST-VEGF; test: competition ELISA on coated GST-VEGF; soluble scFv 2H1 titrated; competitor phage scFv 4F2
human GST-VEGF [17] = target: T1, human GST-VEGF; test: competition ELISA on coated GST-VEGF; soluble scFv 2H1 titrated; competitor phage scFv 1H2; remark: listed apart in the source
human GST-VEGF [18] = target: T1, human GST-VEGF; test: competition ELISA on coated GST-VEGF; soluble scFv 2H1 titrated; competitor phage scFv 2H8
human GST-VEGF [19] = target: T1, human GST-VEGF; test: competition ELISA on coated GST-VEGF; soluble scFv 2H1 titrated; competitor phage scFv 3E1
human GST-VEGF [20] = target: T1, human GST-VEGF; test: competition ELISA on coated GST-VEGF; soluble scFv 2H1 titrated; competitor phage scFv 4D8
human GST-VEGF [21] = target: T1, human GST-VEGF; test: competition ELISA on coated GST-VEGF; soluble scFv 2H1 titrated; competitor phage scFv 1H3; remark: listed apart in the source
human GST-VEGF [22] = target: T1, human GST-VEGF; test: competition ELISA on coated GST-VEGF; soluble scFv 2H1 titrated; competitor phage scFv 3E9
[23] = target: T2, isoform 165 of human VEGF-A (Peprotech) (human, UniProt P15692-4 27-191); test: SPR, BIAcore-X; VEGF 165 coupled to CM5 chip; scFv injected; Langmuir 1:1
T2 construct: also called human VEGF165; VEGF 165
T2 sequence (P15692 other isoform, or with tags, fused parts or gaps limits assumed): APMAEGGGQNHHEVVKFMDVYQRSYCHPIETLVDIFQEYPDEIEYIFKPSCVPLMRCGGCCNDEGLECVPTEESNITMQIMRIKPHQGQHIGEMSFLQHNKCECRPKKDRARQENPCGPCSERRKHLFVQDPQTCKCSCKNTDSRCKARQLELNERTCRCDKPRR

human GST-VEGF [24] = target: T1, human GST-VEGF; test: competition ELISA on coated GST-VEGF; soluble scFv 2H1 titrated; competitor phage scFv L3
human GST-VEGF [25] = target: T1, human GST-VEGF; test: competition ELISA on coated GST-VEGF; soluble scFv 2H1 titrated; competitor phage scFv 1C9
human GST-VEGF [26] = target: T1, human GST-VEGF; test: competition ELISA on coated GST-VEGF; soluble scFv 2H1 titrated; competitor phage scFv 3C4

B1: soluble scFv 2H1 antibody fragment (scFv, from another filing)
scFv: QQVQLVQSGAEVKKPGESLKISCKGSGYSFTSYWIGWVRQMPGKGLEWMGIIYPGDSDTRYSPSFQGQVTISADKSISTAYLQWSSLKASDTAMYYCARLVVRDTEIWGQGTMVTVSSAPQAKSSGSGSESKVDQAVVTQEPSLTVSPGGTVTLTCASSIGAVTSGNYPNWFQQRPGQPPRALIYSTSNKHSWTPARFSGSLLGGKAALTLSGAQPEDEAEYYCLLSYSGARPVFGGGTKLTVLGAAAGSEQKLISEEDLNSHHHHHH
IC50 (human GST-VEGF [1]): 58.9 µg/mL | IC50 (human GST-VEGF [2]): 890 µg/mL | IC50 (human GST-VEGF [3]): 120 µg/mL | IC50 (human GST-VEGF [4]): 149 µg/mL | IC50 (human GST-VEGF [5]): 126 µg/mL | IC50 (human GST-VEGF [6]): 151 µg/mL | IC50 (human GST-VEGF [7]): 15.8 µg/mL | IC50 (human GST-VEGF [8]): 119 µg/mL | IC50 (human GST-VEGF [9]): 5.08 µg/mL | IC50 (human GST-VEGF [10]): 12.2 µg/mL | IC50 (human GST-VEGF [11]): 13.5 µg/mL | IC50 (human GST-VEGF [12]): 117 µg/mL | IC50 (human GST-VEGF [13]): 49.7 µg/mL | IC50 (human GST-VEGF [14]): 115 µg/mL | IC50 (human GST-VEGF [15]): 57.7 µg/mL | absorbance at 492 nm (P64K-VEGFKDR- (human)): 0.764 | IC50 (human GST-VEGF [16]): 4.98 µg/mL | IC50 (human GST-VEGF [17]): 124 µg/mL | IC50 (human GST-VEGF [18]): 46.6 µg/mL | IC50 (human GST-VEGF [19]): 21.2 µg/mL | IC50 (human GST-VEGF [20]): 32 µg/mL | IC50 (human GST-VEGF [21]): 110 µg/mL | IC50 (human GST-VEGF [22]): 15 µg/mL | Kd [23]: 457 nM | IC50 (human GST-VEGF [24]): 358 µg/mL | IC50 (human GST-VEGF [25]): 38.3 µg/mL | IC50 (human GST-VEGF [26]): 29 µg/mL
